The text below walks through data of patent US20230203153A1 (CHILDREN S MEDICAL CENTER, published 2023).

Several values for one entry are separate records, joined by “and”; a condition that tells them apart may be missing. Identical values can stand only once. Like-named read-outs stand apart in the source and are kept apart here. Bridge positions count the residues as written; N and C are the ends. Ends that are not written are not given here. * marks the point of attachment. Biotin = O=C1N[C@H]2[C@H](CS[C@H]2CCCCC(=O)*)N1

Test [1] deals with T1, cyclic (biotinylated) ABCB5 peptide (human, disulfide 1-18).
T1 construct: immobilised at 200 nM on streptavidin-precoated plates; also called cyclic ABCB5 peptide
T1 peptide: Biotin-CRFGAYLIQAGRMTPEGC
Briefly: cyclic biotinylated peptide ELISA (200 nM peptides), broad range of mAb concentrations, OD 450 nm (mAb-average Iso). (In general: In an ELISA, binding on a coated surface is turned into a signal by an enzyme label.)

Test [2] addresses T1, cyclic (biotinylated) ABCB5 peptide. The test can be described thus: cyclic biotinylated peptide ELISA (200 nM peptides), broad range of mAb concentrations, curve fit.
For test [3] the target is unchanged. Briefly: cyclic biotinylated peptide ELISA (200 nM peptides), curve fit, OD 450 nm.
Test [4] deals with T2, cyclic 'scrambled' (neg. ctrl.) peptide (disulfide 1-18).
T2 construct: also called cycl. 'scrambled'
T2 peptide: Biotin-CGFEALGTAIRYPMGQRC
Briefly: cyclic biotinylated peptide ELISA (200 nM peptides), OD 450 nm (mAb-average Iso).

For test [5], the target named is T3, ABCB1 peptide segment corresponding to the ABCB5 linear epitope peptide (human, UniProt P08183 958-973, limits assumed).
T3 construct: domain: corresponding peptide segment (3rd extracellular loop); also called homologous control peptide
T3 peptide (looked up): RFGAYLVAHKLMSFED
Briefly: linear peptide ELISA, BSA-conjugated peptides (20 µM), OD 450 nm (mAb-Iso (InVivoPlus+)).

The target of test [6] is T4, ABCB11 peptide segment corresponding to the ABCB5 linear epitope peptide (human, UniProt O95342 1001-1016, limits assumed).
T4 construct: domain: corresponding peptide segment (3rd extracellular loop); also called homologous control peptide
T4 peptide (looked up): RYGGYLISNEGLHFSY
Described as above.

For test [7], the target named is T5, ABCB5 linear epitope peptide (3rd extracellular loop) (human).
T5 construct: Synthetic linear peptide, used at 20 uM in the ELISA; 104; also called ABCB5 peptide; linear peptide
T5 peptide: RFGAYLIQAGRMTPEG
The description is as above.

For test [8], the target named is T6, 'scrambled' (neg. ctrl.) peptide (also: conjugated to BSA).
T6 construct: also called scrambled|BSA peptide
T6 peptide: GFEALGTAIRYPMGQR
The test is described as above.

For test [9], the target named is T1, cyclic (biotinylated) ABCB5 peptide. The test can be described thus: cyclic biotinylated peptide ELISA (200 nM peptides), curve fit.
For test [10] the target is unchanged. The test can be described thus: cyclic biotinylated peptide ELISA (200 nM peptides), broad range of mAb concentrations, curve fit, OD 450 nm.
Test [11] has as its target T3, ABCB1 peptide segment corresponding to …. Briefly: linear peptide ELISA, BSA-conjugated peptides (20 µM), OD 450 nm (mAb-Iso (InVivoPlus+)).
The target of test [12] is T4, ABCB11 peptide segment corresponding to …. The test is described as above.
Test [13] deals with T5, ABCB5 linear epitope peptide (3rd …). Described as above.
In test [14] the target is T6, 'scrambled' (neg. ctrl.) peptide. Described as above.
Test [15] concerns the target T1, cyclic (biotinylated) ABCB5 peptide. Briefly: cyclic biotinylated peptide ELISA (200 nM peptide on streptavidin plates), BSA control subtracted (FIG. 4B).
In test [16] the target is T5, ABCB5 linear epitope peptide (3rd …). Briefly: linear peptide ELISA, BSA-conjugated peptides (20 µM), OD 450 nm (mAb-Iso). From the text: (§1) Specificity for ABCB5 of Ab100. ELISAs run against ABCB5 peptide used to make the antibody was examined. The linear peptide ELISA binding study was a comparative assessment of quantitative binding to ABCB5 linear epitope peptide (3rd extracellular loop) and corresponding peptide segments of homologous (ABCB 1, 4, 11) and orthologous (murine ABCB5) proteins—to assess specificity and/or cross-reactivity (see FIG. 2). […] A primate sequence was not tested as the epitope sequence is identical to the human epitope. A scrambled peptide was used as a negative control. All of the tested peptides are all linear peptides, synthetically created to resemble extracellular loop. The X-axis is the Ab concentration. The Y-axis is the optical density of ELISA (signal representing binding). A non-specific signal with isotype antibody has been subtracted, which is why a non-specific isotype antibody is not shown.

In test [17] the target is T6, 'scrambled' (neg. ctrl.) peptide. The description is as above.
Excerpt: as §1

Test [18] deals with T7, ABCB4 peptide segment corresponding to the ABCB5 linear epitope peptide (human, UniProt P21439 957-972, limits assumed).
T7 construct: domain: corresponding peptide segment (3rd extracellular loop); also called homologous control peptide
T7 peptide (looked up): RFGAYLIVNGHMRFRD
The test is described as above.
Excerpt: as §1

The target of test [19] is T1, cyclic (biotinylated) ABCB5 peptide. The test can be described thus: cyclic biotinylated peptide ELISA (200 nM peptide on streptavidin plates), no Ab control subtracted (FIG. 4A).

B1: ABCB5-Ab101 (antibody, human IgG1, kappa, V domains shown)
VH: QVQLVQSGAEVKKPGASVKVSCKASGYTFTSYYMHWVRQAPGQGLEWMGIINPSGGSTSYAQKFQGRVTMTRDTSTSTVYMELSSLRSEDTAVYYCARDQAVTGTAYYYYYGMDVWGQGTTVTVSS
VL: EIVLTQSPGTLSLSPGERATLSCRASQSVNSNYLAWYQQKPGQAPRLLIYGTSSRATGIPDSFSGSGSGTDFTLTISRLEPEDFAVYYCQQFGSSPLTFGGGTKVEIKR
notes: Fully human monoclonal IgG1 kappa
By EC50 (read off the curve) is commonly meant the concentration at which the effect is half-maximal. A low value points to a more potent agent. By Kd is commonly meant the free concentration of one partner at which half of the binding sites on the other are occupied at equilibrium, for simple one-to-one binding. Low values mean tighter binding, high ones weaker binding. B1: in [1], the concentration giving a half-maximal response (EC50 (read off the curve)) is ~0.04 µg/mL. The dissociation constant Kd is 0.039 µg/mL and 0.261 nM in test [2]; 0.0283 µg/mL and 0.19 nM in test [9]. The Bmax in [3] is 3.33; in test [10] it was 3.83. Also, the binding result is reported as “no binding (tested: 1 µg/ml)” in test [4]; “no binding (tested: 50 µg/ml)” in test [5]; “no binding (tested: 50 µg/ml)” in test [6]; “binds” in test [7]; “no binding (tested: 50 µg/ml)” in test [8].

B2: ABCB5-Ab43 (antibody, V domains shown)
VH: QVQLVQSGAEVKKPGASVKVSCKASGYTFTSYYMHWVRQSPGQGLEWMGIINPSGGSTSYAQKFQGRVTMTRDTSTSTVYMELSSLRSEDTAVYYCARDQAVTGTAYYYYYGMDVWGQGTTVTVSS
VL: EIVLTQSPGTLSLSPGERATLSCRASQSVNSKYLAWYQQKPGQAPRLLIYGTSSRATGIPDSFSGSGSGTDFTLTISRLEPEDFAVYYCQQFGSSPLTFGGGTKVEIK
Take B2: the “EC50 (read off the curve)” value in test [1] is ~0.04 µg/mL. The dissociation constant (Kd) in [2] was 0.0345 µg/mL and 0.231 nM; in [9] it was 0.0204 µg/mL and 0.137 nM. Besides, the Bmax was determined as 3.24 in test [3] and 3.77 in test [10]. Besides, the binding result was “no binding (tested: 1 µg/ml)” in test [4]; “no binding (tested: 50 µg/ml)” in [11]; “no binding (tested: 50 µg/ml)” in test [12]; “binds” in test [13]; “no binding (tested: 50 µg/ml)” in [14].

B3: ABCB5-Ab45 (antibody, V domains shown)
VH: QVQLVQSGAEVKKPGASVKVSCKASGYTFTNYYMHWVRQAPGQGPEWMGIINPSGGSTSYAQKFQGRVTMTRDTSTSTVYMELSSLRSEDTAVYYCARDLAVTGTAYYYYYGMDVWGQGTTVTVSS
VL: EFVLTQSPGTLSLSPGERATLSCRASQSVNSNYLAWYQQKPGQAPRLLIYGTSSRATGIPDSFSGSGSGTDFTLTISRLEPEDFAVYYCQQFGSSPLTFGGGTKVEIK
As for B3, the “EC50 (read off the curve)” value in test [1] is ~0.02 µg/mL. Also, the Kd was 0.0205 µg/mL and 0.138 nM in [2]; 0.00456 µg/mL and 0.0306 nM in test [9]. The Bmax is 3.2 in [3] and 3.71 in test [10]. The binding result in test [4] is recorded as “no binding (tested: 1 µg/ml)”; in [11], “no binding (tested: 50 µg/ml)”; in [12] it was “no binding (tested: 50 µg/ml)”; in test [13] it was “binds”; in [14] it was “no binding (tested: 50 µg/ml)”.

B4: ABCB5-Ab42 (antibody, V domains shown)
VH: QVQLVQSGAEVKKPGASVKVSCKTSGYTFTSYYMHWVRQSPGQGLEWMGIINPSGGSTSYAQKFQGRVTMTRDTSTSTVYMELSSLRSEDTAVYYCARDQAVTGTAYYYYYGMDVWGQGTTVTVSS
VL: EIVLTQSPGTLSLSPGERATLSCRASLSVNSNYLAWYQQKPGQAPRLLIYGTSSRATGIPDSFSGSGSGTDFTLTISRLEPEDFAVYYCQQFGSSPLTFGGGTKVEIK
notes: detection was with an anti-human secondary antibody
With B4, the “EC50 (read off the curve)” value in test [1] was ~0.04 µg/mL. In addition, the Kd in [2] is 0.0471 µg/mL and 0.316 nM; in test [9] it was 0.0222 µg/mL and 0.149 nM. Moreover, the values for the Bmax in test [3] and in test [10] were 3.17 and 4.09, respectively. Moreover, the binding result in test [4] is recorded as “no binding (tested: 1 µg/ml)”; in [11], “no binding (tested: 50 µg/ml)”; in [12] it was “no binding (tested: 50 µg/ml)”; in test [13] it was “binds”; in test [14] it was “no binding (tested: 50 µg/ml)”.

B5: ABCB5-Ab44 (antibody, V domains shown)
VH: QVQLVQSGAEVKKPGASVKVSCKASGYTFTSYYMHWVRQAPGQGLEWMGIINPSGGSTSYAQKFKGRVTMTRDTSTSTVYMELSSLRSEDTAVYYCARDQAVTGTAYYYYYGMDVWGQGTTVTVSS
VL: EIVLTQSPGTLSLSPGERATLSCRASQSVNSNYLAWYQQKPGQAPRLLIYGTSSRATGIPDSFSGSGSGTDFTLTISRLEPEDFAVYYCQQFGSSPLTFGGGTKVEIK
notes: also called A44; F01
Regarding B5, in test [1], the “EC50 (read off the curve)” value was ~0.04 µg/mL. The Kd in [2] was 0.0335 µg/mL and 0.225 nM; in test [9] it was 0.00917 µg/mL and 0.0615 nM. In addition, the figures for the Bmax in test [3] and in test [10] were 3.23 and 3.99, respectively. For the same molecule, the binding result in [4] is listed as “no binding (tested: 1 µg/ml)”; in [11] it was “no binding (tested: 50 µg/ml)”; in test [12] it was “no binding (tested: 50 µg/ml)”; in test [13], “binds”; in test [14] it was “no binding (tested: 50 µg/ml)”.

B6: ABCB5-Ab100 (antibody, human IgG1, kappa, V domains shown)
VH: EVQLVESGGGLVQPGGSLRLSCAASGFTFSSYSMNWVRQAPGKGLEWVSYISSSSSTIYYADSVKGRFTISRDNAKNSLYLQMNSLRDEDTAVYYCASNYQYGDYGGYWGRGTLVTVSS
VL: AIQLTQSPSSLTGSVGDRVTITCQASHDISNFLNWYQQKPGQAPKLLIYDAYNLQTGVPSRFSGTGSGTHFTLTINSLQPEDVGTYFCQQYDYFLSITFGQGTRLEIKR
As for B6, the Kd in test [15] is 6.16 µg/mL and 41.3 nM; in test [19] it was 4.93 µg/mL and 33.1 nM. In addition, the binding result in test [16] is given as “binds”; in test [17] it was “no binding (tested: 50 µg/mL)”; in test [18], “no binding (tested: 50 µg/mL)”.
